From US20220154138A1, “METHOD OF PRODUCING PLACENTA-LIKE ORGANOID, PLACENTA-LIKE ORGANOID, AND PRODUCTION OR TEST KIT” (FUJIFILM Corporation, priority 2020, published 2022)

Tests used:
[1] = system: iPS cells; assay: Two-dimensional adhesion culture with BMP4, hCG quantified by i-STAT cartridge Total β-hCG; type: cell-based, human
Description: (§1) In the i-STAT cartridge Total β-hCG, about 17 μL of the culture supernatant was sampled, injected into the reagent cartridge, and inserted into the single-purpose analyzer.
Two-dimensional adhesion culture was carried out by the following method. Laminin (iMatrix-511: Nippi. Inc.) was diluted with Dulbecco's phosphate buffered saline (DPBS), 1 mL thereof per well was dispensed into a 6-well plate (Falcon TC: #353046), and the plate was allowed to stand in a 37° C. incubator for 1 hour to be coated with laminin. 2 mL of an iPS cell medium (StemFit (registered trade name) AK02N: Ajinomoto Co., Inc.) was dispensed into the laminin-coated plate in a state where a BMP4 solution was not added, iPS cells (4×10^4 cells/well) were seeded therein, the culture was continued while appropriately changing the medium, and from the 4th day of culture, 2 mL of an iPS cell culture medium (StemFit (registered trade name) AK02N: Ajinomoto Co., Inc.) to which 2 μL of a solution containing 50 μg/mL BMP4 (R&D Systems Inc.) solution had been added so that the BMP4 concentration was to be 50 ng/mL was used at the time of the medium exchange.
(§2) On the other hand, three-dimensional suspension culture was started at the same time using the same iPS cells used in the two-dimensional culture adhesion culture. 30 mL of an iPS cell medium (StemFit (registered trade name) AK02N: Ajinomoto Co., Inc.) was dispensed into a 30 mL volume spinner flask (ABLE Corporation), and then iPS cells (1.3×10^6 cells/mL) were seeded. In the same manner as in the two-dimensional adhesion culture, BMP4 was not added at the start of culture, but a medium to which a solution containing 50 μg/mL BMP4 (R&D Systems Inc.) was added at the same proportion as that used in the two-dimensional adhesion culture was used after the 4th day of culture. After the start of culture, the addition of BMP4 to the medium was continued until the 14th day of culture while the medium was exchanged every 3 to 4 days, and thereafter, a medium to which BMP4 had not been added was used. In three-dimensional suspension culture, stirring culture was continued in a spinner flask throughout the culture period. While continuing the two-dimensional adhesion culture and the three-dimensional suspension culture, the culture supernatant was appropriately sampled after the 7th day of culture, and the amount of hCG produced was quantified using the i-STAT cartridge Total β-hCG. Since there are differences in the number of cells that can be seeded at the start of culture and the adding amount of medium between the two-dimensional culture and the three-dimensional culture, there are differences in the hCG concentration and the total hCG production in the culture supernatant, and thus it is not possible to simply compare them. For this reason, the hCG quantification value on the 7th day of culture after the start of differentiation induction into the placenta was set to 100, and the ratio of the hCG quantification value on the subsequent culture measurement day to the hCG quantification value on the 7th day of culture was calculated. That is, in a case where the hCG quantification value on the 7th day is set to 100 in each of the two-dimensional and three-dimensional culture forms, the subsequent changes after the 7th day in the hCG production amount are shown in FIG. 2. It was confirmed that in the two-dimensional culture, the decrease in hCG production amount is particularly remarkable after the 15th day of culture, whereas in the three-dimensional culture, the hCG continues to be produced after the 15th day, and even on the 25th day of culture, 10 times or more of the hCG production is maintained as compared with the 7th day of culture.

[2] = system: iPS cells; assay: Three-dimensional suspension culture with BMP4, hCG quantified by i-STAT cartridge Total β-hCG; type: cell-based, human
Description: as §1, §2

[3] = Three-dimensional culture, day 10
[4] = Three-dimensional culture, day 14
[5] = Three-dimensional culture, day 17
[6] = Three-dimensional culture, day 19
[7] = Three-dimensional culture, day 21
[8] = Three-dimensional culture, day 25

B1: BMP4: bone morphogenetic protein BMP4 (R&D Systems Inc.), added to iPS cell medium at 50 ng/mL to induce differentiation (protein, UniProt P12644 293-408, looked up)
Bone morphogenetic protein 4: SPKHHSQRARKKNKNCRRHSLYVDFSDVGWNDWIVAPPGYQAFYCHGDCPFPLADHLNSTNHAIVQTLVNSVNSSIPKACCVPTELSAISMLYLDEYDKVVLKNYQEMVVEGCGCR
**Q.** How did the hCG production ([1]; BMP4 50 ng/mL from day 4, day 7) turn out when B1 was run?
**A.** 6.6 IU

**Q.** What about the “hCG* production (hCG production on each of culture days/hCG production amount on 7th day) × 100” value ([1]; day 7) of the same molecule?
**A.** 100 AU

**Q.** And the hCG production ([1]; day 11)?
**A.** 8.0 IU

**Q.** What about the “hCG* production (relative to 7th day × 100)” value ([1]; day 11) of the same molecule?
**A.** 120 AU

**Q.** And the hCG production ([1]; day 15)?
**A.** 5.0 IU

**Q.** And the “hCG* production (relative to 7th day × 100)” value ([1]; day 15)?
**A.** 75 AU

**Q.** What about the hCG production ([1]; day 18) of the same molecule?
**A.** 4.1 IU

**Q.** What about the “hCG* production (relative to 7th day × 100)” value ([1]; day 18) of the same molecule?
**A.** 62 AU

**Q.** And the hCG production ([1]; day 22)?
**A.** 1.4 IU

**Q.** What about the “hCG* production (relative to 7th day × 100)” value ([1]; day 22) of the same molecule?
**A.** 20 AU

**Q.** What about the hCG production ([1]; day 25) of the same molecule?
**A.** 1.6 IU

**Q.** And the “hCG* production (relative to 7th day × 100)” value ([1]; day 25)?
**A.** 25 AU

**Q.** What about the hCG production ([2]; Three-dimensional culture, BMP4 day 4 to 14, day 7) of the same molecule?
**A.** 1.6 IU

**Q.** What about the “hCG* production (hCG production on each of culture days/hCG production amount on 7th day) × 100” value ([2]; Three-dimensional culture, day 7) of the same molecule?
**A.** 100 AU

**Q.** What about the hCG production [2, 3] of the same molecule?
**A.** 61 IU

**Q.** What about the “hCG* production (relative to 7th day × 100)” value [2, 3] of the same molecule?
**A.** 3,936 AU

**Q.** And the hCG production [2, 4]?
**A.** 79 IU

**Q.** And the “hCG* production (relative to 7th day × 100)” value [2, 4]?
**A.** 5,044 AU

**Q.** And the hCG production [2, 5]?
**A.** 120 IU

**Q.** And the “hCG* production (relative to 7th day × 100)” value [2, 5]?
**A.** 7,692 AU

**Q.** And the hCG production [2, 6]?
**A.** 120 IU

**Q.** What about the “hCG* production (relative to 7th day × 100)” value [2, 6] of the same molecule?
**A.** 7,692 AU

**Q.** What about the hCG production [2, 7] of the same molecule?
**A.** 54 IU

**Q.** And the “hCG* production (relative to 7th day × 100)” value [2, 7]?
**A.** 3,465 AU

**Q.** And the hCG production [2, 8]?
**A.** 23 IU

**Q.** And the “hCG* production (relative to 7th day × 100)” value [2, 8]?
**A.** 1,498 AU

**Q.** And the “hCG production on 25th day as compared with the 7th day of culture” value ([2]; three-dimensional culture)?
**A.** ≥ 10 times
